Positions count from the first letter of the chain named.
T1: FcRL3, overexpressed on 3T3 cells (UniProt Q96P31 18-734, limits assumed)
T1 construct: whole, on cells
T1 sequence (looked up): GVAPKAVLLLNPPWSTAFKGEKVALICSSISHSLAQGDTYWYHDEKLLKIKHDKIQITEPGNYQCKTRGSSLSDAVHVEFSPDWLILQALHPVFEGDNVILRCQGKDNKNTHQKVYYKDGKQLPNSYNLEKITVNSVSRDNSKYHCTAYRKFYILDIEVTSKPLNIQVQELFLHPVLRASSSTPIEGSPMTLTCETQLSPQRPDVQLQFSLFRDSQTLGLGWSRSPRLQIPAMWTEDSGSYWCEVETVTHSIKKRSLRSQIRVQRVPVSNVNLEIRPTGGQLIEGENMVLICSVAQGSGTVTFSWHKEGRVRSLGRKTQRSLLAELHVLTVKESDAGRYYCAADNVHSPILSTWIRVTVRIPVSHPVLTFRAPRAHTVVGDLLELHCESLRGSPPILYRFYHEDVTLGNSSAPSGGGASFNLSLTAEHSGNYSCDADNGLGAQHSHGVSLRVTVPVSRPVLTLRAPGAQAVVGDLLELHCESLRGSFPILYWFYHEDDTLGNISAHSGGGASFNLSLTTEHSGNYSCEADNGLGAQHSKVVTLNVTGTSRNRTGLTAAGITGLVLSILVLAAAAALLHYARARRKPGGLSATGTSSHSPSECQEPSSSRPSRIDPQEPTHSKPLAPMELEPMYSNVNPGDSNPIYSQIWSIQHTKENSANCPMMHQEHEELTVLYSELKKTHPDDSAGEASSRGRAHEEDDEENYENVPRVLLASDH

T2: FcRL4, overexpressed on 3T3 cells (UniProt Q96PJ5 20-515, limits assumed)
T2 construct: whole, on cells
T2 sequence (looked up): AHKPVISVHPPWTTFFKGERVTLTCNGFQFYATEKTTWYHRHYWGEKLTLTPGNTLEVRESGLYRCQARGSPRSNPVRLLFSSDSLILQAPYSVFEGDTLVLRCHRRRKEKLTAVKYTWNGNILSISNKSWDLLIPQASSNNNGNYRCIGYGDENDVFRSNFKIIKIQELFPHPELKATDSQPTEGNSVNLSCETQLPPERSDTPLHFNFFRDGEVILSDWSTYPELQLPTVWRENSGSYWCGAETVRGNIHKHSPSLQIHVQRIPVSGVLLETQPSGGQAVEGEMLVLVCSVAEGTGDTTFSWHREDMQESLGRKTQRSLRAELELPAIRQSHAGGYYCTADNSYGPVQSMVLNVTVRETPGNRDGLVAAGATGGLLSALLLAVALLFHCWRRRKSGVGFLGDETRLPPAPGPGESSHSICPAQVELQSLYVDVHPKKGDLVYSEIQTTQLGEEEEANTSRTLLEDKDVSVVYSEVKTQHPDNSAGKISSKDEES

B1: ET200-042 (scFv)
scFv: QSVVTQPPSVSGAPGQTVTISCTGGSSNIGTGYFVNWYQQVPGKAPKLLILGNNNRPSGVPDRLSGSTSGTSASLAITGLQAEDEGTYYCQSYDSSLSGYVFGTGTKVTVLGSRGGGGSGGGGSGGGGSLEMAQVQLQQSGPGLVKPSQTLSLTCGISGDSVSTNSVAWHWIRQSPSRGLEWLGRTYYRSKWSNDYGVSVKSRITIIPDTSKNQFSLQLNSVTPEDTAVYYCARSSSWYQIFDYWGQGTLVTVSSTSGQAGQHHHHHHGAYPYDVPDYAS
notes: screened as phage clone; entry is VL-linker-VH-His tag-HA tag
B2: ET200-044 (scFv)
scFv: QSVLTQPPSVSVSPGQTATIACSGHKLGDKYASWYQQKSGQSPVLIIYQDNKRPSGIPERFSGSNSGNTATLTISGTQALDEADYYCQAWDSSTYVAFGGGTKLTVLGSRGGGGSGGGGSGGGGSLEMAQVQLQESGPGLVKPSETLSLTCVVSGGSISSSNWWSWVRQPPGKGLEWIGEIYHSGSPNYNPSLKSRVTISVDKSKNQFSLKLSSVTAADTAVYYCARMTTHTFGYDAWGQGTLVTVSSTSGQAGQHHHHHHGAYPYDVPDYAS
notes: as for B1
B3: ET200-045 (scFv)
scFv: QPVLTQPPSVSVAPGKTATITCGGNNIGSESVHWYHQKPGQAPVLVIYDDAGRPSGIPERFTGSNSGNTATLTISRVEAGDEADYYCQVWDRNSAQFVFGPGTKVTVLGSRGGGGSGGGGSGGGGSLEMAEVQLVQSGAEVKKPGASVKVSCKASGYTFTSYGISWVRQAPGQGLEWMGWISAYNGNTNYAQKLQGRVTMTTDTSTSTAYMELRSLRSDDTAVYYCARGVHLDWWGQGTLVTVSSTSGQAGQHHHHHHGAYPYDVPDYAS
notes: as for B1
B4: ET200-069 (scFv)
scFv: QSVVTQPPSASGTPGQRVTISCSGSSSNIGSNYVYWYQQLPGTAPKLLIYSNNQRPSGVPDRFSGSKSGTSASLAISGLRSEDEADYYCAAWDDSLSGYVFGTGTKLTVLGSRGGGGSGGGGSGGGGSLEMAQVQLQQWGAGLLKPSETLSLTCAVYGGSFSGYYWSWIRQPPGKGLEWIGEINHSGSTNYNPSLKSRVTISVDTSKNQFSLKLSSVTAADTAVYYCARLYEGGYHGWGSWLSSDSWGQGTLVTVSSTSGQAGQHHHHHHGAYPYDVPDYAS
notes: screened as phage clone; entry is VL-linker-VH-His tag-HA tag; also called ET200-69
B5: ET200-079 (scFv)
scFv: SYELTQPPSASGTPGQRVTISCSGSSSNIGSNYVYWYQQLPGTAPKLFIYRNNQRPSGVPDRFSGSKSGTSASLAISGLRSEDEADYYCAAWDDSLSGYLFGTGTKVTVLGSRGGGGSGGGGSGGGGSLEMAEVQLVESGGGLVQPGRSLRLSCAASGFTFDDYAMHWVRQAPGKGLEWVSGISWNSGSIGYADSVKGRFTISRDNAKNSLYLQMNSLRAEDTALYYCANGDSNYYYGMDVWGQGTTVTVSSTSGQAGQHHHHHHGAYPYDVPDYAS
notes: as for B1
B6: ET200-081 (scFv)
scFv: QSALTQPASVSGSPGQSITISCTGTSSDIGGYNYVSWYQQHPGKAPKLMIYDVSNRPSGVSNRFSGSKSGNTASLTISGLQAEDEADYYCISYTRTWNPYVFGSGTKVTVLGSRGGGGSGGGGSGGGGSLEMAEVQLVQSGGGVVQPGGSLRLSCAASGFTFDDYAMHWVRQAPGKGLEWVSLISGDGGSTYYADSVKGRFTISRDNSKNSLYLQMNSLRTEDTALYYCAKDRAAAGYYYYGMDVWGQGTTVTVSSTSGQAGQHHHHHHGAYPYDVPDYAS
notes: as for B1
B7: ET200-097 (scFv)
scFv: LPVLTQPPSVSVSPGQTAIITCSGDKLGEKYVSWYQQKPGQSPVLVIDQDTRRPSGIPERFSGSNSGTTATLTISGTQAMDEADYYCQAWDRGVVFGGGTKLTVLGSRGGGGSGGGGSGGGGSLEMAEVQLVESGGDLVQPGRSLRLSCAASGFTFNDYAMHWVRQAPGKGLEWVSGISWSGNNIGYADSVKGRFTISRDNAKNSLYLQMNSLRAEDTALYYCAKDSIRYGITWGGFDYWGQGTLVTVSSTSGQAGQHHHHHHGAYPYDVPDYAS
notes: as for B1
B8: ET200-098 (scFv)
scFv: QPVLTQPPSVSKGLRQTATLTCTGNSNNVGNLGVAWLQQHQGHPPKLLSYRNNNRPSGISERLSASRSGNTASLTITGLQPEDEADYYCSAWDSSLSAWVFGGGTKLTVLGSRGGGGSGGGGSGGGGSLEMAEVQLVESGGVVVQPGGSLRLSCAASGFTFDDYAMHWVRQAPGKGLEWVSLINWDGGSTYYADSVKGRFTISRDNSKNSLYLQMNSLRAEDTALYYCAKGMGLRAFDYWGQGTLVTVSSTSGQAGQHHHHHHGAYPYDVPDYAS
notes: as for B1
B9: ET200-006 (scFv)
scFv: SYVLTQPPSVSVAPGKTARITCGGNNIGSKSVHWYQQKPGQAPVVVIHYDSDRPSGIPERFSGSNSGNTATLTISRVEAGDEADYYCQVWDSSSDHPYVFGTGTKVTVLGSRGGGGSGGGGSGGGGSLEMAEVQLVQSGAEVKKPGASVKVSCKASGYTFTTYGISWVRQAPGQGLEWMGWINTYNGHTNYAQKLQGRATMTADTSTNTAYMELRSLRSDDTAVYYCARVIYGSGDYWGQGTLVTVSSTSGQAGQHHHHHHGAYPYDVPDYAS
notes: as for B1
B10: ET200-099 (scFv)
scFv: QSVLTQPPSASGTPGQRVTISCSGSSSNIGSNTVNWYQQLPGTAPKLLIYSNDQRPSGVPDRFSGSKSGTSASLAISGLQSEDEADYYCASWDDSLNGRYVFGTGTKVTVLGSRGGGGSGGGGSGGGGSLEMAQVQLVQSGAEVRKPGASVKVSCKTSGYTFSWYAIHWVRQAPGQRLEWMGWINAGNGNTKYSQKFQGRVSLTRDTSASTAYMELSSLRSDDTAVYYCARPDNYGSGGDVFDIWGQGTMVTVSSTSGQAGQHHHHHHGAYPYDVPDYAS
notes: as for B1
B11: ET200-100 (scFv)
scFv: NFMLTQPHSVSESPGKTVTISCTRSSGSIASNFVQWYQQRPGSAPTPMIYEDNNRPPGVPDRFSASVDSSSNSASLTISGLKTEDEADYYCQSYDTSNVVFGGGTKLTVLGSRGGGGSGGGGSGGGGSLEMAEVQLVESGGGLVQPGGSLRLSCAASGFTFSSYEMNWVRQAPGKGLEWVSYISSSGSTIYYADSVKGRFTISRDNAKNSLYLQMNSLRAEDTAVYYCARWDYGMDVWGQGTTVTVSSTSGQAGQHHHHHHGAYPYDVPDYAS
notes: as for B1
B12: ET200-104 (scFv)
scFv: B11 scFv with F33Y, P47T, M48V, N54Q, P57S, A65G, V67I, T96S, L107V
notes: as for B1
B13: ET200-101 (scFv)
scFv: QAVLTQPPSASGAPGQRVTVSCSGSNSNIGSNYVNWYQQFPGTAPKLLMYSSSQRPSGVPDRFSGSKSGTSASLAISGLHSEDEADYYCATWDDSLNAWVFGGGTKLTVLGSRGGGGSGGGGSGGGGSLEMAEVQLVQSGAEVRKPGASVKVSCKTSGYTFTWYAIHWVRQAPGQRLEWMGWINAGSGNTKYSQKFQGRVTLTRDTSASTAYMELSSLRSDDTAVYYCARPNNYGSGGDVFDIWGQGTMVTVSSTSGQAGQHHHHHHGAYPYDVPDYAS
notes: as for B1
B14: ET200-102 (scFv)
scFv: QSVVTQPPSVSAAPGQKVTISCSGSSSNIGNNYVSWYQQLPGTAPKLLIYDNNKRPSGIPDRFSGSKSGTSATLGITGLQTGDEADYYCGTWDSSLSAYVFGTGTKVTVLGSRGGGGSGGGGSGGGGSLEMAQVQLVQSGAEVKKPGASVKVSCKASGYTFTNYALHWVRQAPGQGLEWMAWINGGNGNTKYSQNFQGRVTITRDTSASTAYMELSSLRSEDTAVYYCAKPEETAGTIHFDYWGQGTPVTVSSTSGQAGQHHHHHHGAYPYDVPDYAS
notes: as for B1
B15: ET200-103 (scFv)
scFv: QAVLTQPHSVSESPGKTVTISCTRSSGSIASNYVQWYQQRPGSAPTTVIYEDNQRPSGVPDRFSGSIDSSSNSASLTISGLKTEDEADYYCQSYDSTITVFGGGTKLTVLGSRGGGGSGGGGSGGGGSLEMAQVQLVQSGAEVKKPGSSVKVSCKASGGTFSSYAISWVRQAPGQGLEWMGGIIPIFGTANYAQKFQGRVTITADESTSTAYMELSSLRSEDTAVYYCAGEGYYDSSGYSNGDAFDIWGQGTMVTVSSTSGQAGQHHHHHHGAYPYDVPDYAS
notes: as for B1

What follows are binders tested against T1, FcRL3, overexpressed on 3T3 cells (assay: phage clone on 3T3-FcRL3 cells).
B1: no binding.
B2: no binding.
B3: no binding.
B4: no binding.
B5: no binding.
B6: no binding.
B7: no binding.
B8: no binding.
B9: no binding.
B10: no binding.
B11: no binding.
B12: no binding.
B13: no binding.
B14: no binding.
B15: no binding.

These binders were tested against T2, FcRL4, overexpressed on 3T3 cells (assay: phage clone on 3T3-FcRL4 cells).
B1: no binding.
B2: no binding.
B3: no binding.
B4: no binding.
B5: no binding.
B6: no binding.
B7: no binding.
B8: no binding.
B9: no binding.
B10: no binding.
B11: no binding.
B12: no binding.
B13: no binding.
B14: no binding.
B15: no binding.
